Data: patent US20190225682A1

Target: cyno ST2L (cyno)
Experiment: affinity table, cyno ST2L; method not stated

koff: 0.00065 s⁻¹
B1: STLM107 (antibody, from another filing, V domains shown)
VH: EVQLLESGGGLVQPGGSLRLSCAASGFTFSDYAMFWVRQAPGKGLEWVSAIEGEGGETNYADSVKGRFTISRDNSKNTLYLQMNSLRAEDTAVYYCARDPWSTEGSFFVLDYWGQGTLVTVSS
VL: EIVLTQSPATLSLSPGERATLSCRASQSVDDDLAWYQQKPGQAPRLLIYDASNRATGIPARFSGSGSGTDFTLTISSLEPEDFAVYYCQQYIGAPITFGQGTKVEIK
